Measured values reported in paper PMC7367873, “Dissecting the sequence determinants for dephosphorylation by the catalytic subunits of phosphatases PP1 and PP2A” (Nature Communications, 2020).

How the values were obtained:
[1] = test system: GFP-14-3-3β and its binding proteins; experiment: GFP-14-3-3β co-IP with LC-MS/MS label-free quantification, untreated versus PP1c-treated; set-up: species or system human
GFP-14-3-3β = GFP-14-3-3β co-IP with LC-MS/MS, untreated GFP-14-3-3β versus GFP control (14-3-3 interactome); format: binding, human
[2] = PP1 vs untreated, LFQ intensities, replicates 1-3
[3] = untreated vs GFP, LFQ intensities, replicates 1-3

| Molecule | Difference (log2), PP1 vs untreated [1, 2] [log2] | Difference (log2), untreated vs GFP (GFP-14-3-3β; [3]) [log2] | Difference (log2), PP1 vs untreated ([1]; log2 difference, pairwise comparison PP1 vs untreated, label-free quantification, 3 replicates each) | Difference (log2), untreated vs GFP (GFP-14-3-3β; log2 difference, pairwise comparison untreated vs GFP, label-free quantification, 3 replicates each) |
| --- | --- | --- | --- | --- |
| NEXN (protein, UniProt Q0ZGT2 1-675, looked up) Nexilin: MNDISQKAEILLSSSKPVPKTYVPKLGKGDVKDKFEAMQRAREERNQRRSRDEKQRRKEQYIREREWNRRKQEIKEMLASDDEEDVSSKVEKAYVPKLTGTVKGRFAEMEKQRQEEQRKRTEEERKRRIEQDMLEKRKIQRELAKRAEQIEDINNTGTESASEEGDDSLLITVVPVKSYKTSGKMKKNFEDLEKEREEKERIKYEEDKRIRYEEQRPSLKEAKCLSLVMDDEIESEAKKESLSPGKLKLTFEELERQRQENRKKQAEEEARKRLEEEKRAFEEARRQMVNEDEENQDTAKIFKGYRPGKLKLSFEEMERQRREDEKRKAEEEARRRIEEEKKAFAEARRNMVVDDDSPEMYKTISQEFLTPGKLEINFEELLKQKMEEEKRRTEEERKHKLEMEKQEFEQLRQEMGEEEEENETFGLSREYEELIKLKRSGSIQAKNLKSKFEKIGQLSEKEIQKKIEEERARRRAIDLEIKEREAENFHEEDDVDVRPARKSEAPFTHKVNMKARFEQMAKAREEEEQRRIEEQKLLRMQFEQREIDAALQKKREEEEEEEGSIMNGSTAEDEEQTRSGAPWFKKPLKNTSVVDSEPVRFTVKVTGEPKPEITWWFEGEILQDGEDYQYIERGETYCLYLPETFPEDGGEYMCKAVNNKGSAASTCILTIESKN | -1.398 | 0.832 |  |  |
| FBL (protein, UniProt P22087 1-321, looked up) rRNA 2'-O-methyltransferase …: MKPGFSPRGGGFGGRGGFGDRGGRGGRGGFGGGRGRGGGFRGRGRGGGGGGGGGGGGGRGGGGFHSGGNRGRGRGGKRGNQSGKNVMVEPHRHEGVFICRGKEDALVTKNLVPGESVYGEKRVSISEGDDKIEYRAWNPFRSKLAAAILGGVDQIHIKPGAKVLYLGAASGTTVSHVSDIVGPDGLVYAVEFSHRSGRDLINLAKKRTNIIPVIEDARHPHKYRMLIAMVDVIFADVAQPDQTRIVALNAHTFLRNGGHFVISIKANCIDSTASAEAVFASEVKKMQQENMKPQEQLTLEPYERDHAVVVGVYRPPPKVKN | -1.367 | 2.48 |  |  |
| KANK1 (protein, UniProt Q14678 1-1352, looked up) KN motif and ankyrin repeat …: MAHTTKVNGSASGKAGDILSGDQDKEQKDPYFVETPYGYQLDLDFLKYVDDIQKGNTIKRLNIQKRRKPSVPCPEPRTTSGQQGIWTSTESLSSSNSDDNKQCPNFLIARSQVTSTPISKPPPPLETSLPFLTIPENRQLPPPSPQLPKHNLHVTKTLMETRRRLEQERATMQMTPGEFRRPRLASFGGMGTTSSLPSFVGSGNHNPAKHQLQNGYQGNGDYGSYAPAAPTTSSMGSSIRHSPLSSGISTPVTNVSPMHLQHIREQMAIALKRLKELEEQVRTIPVLQVKISVLQEEKRQLVSQLKNQRAASQINVCGVRKRSYSAGNASQLEQLSRARRSGGELYIDYEEEEMETVEQSTQRIKEFRQLTADMQALEQKIQDSSCEASSELRENGECRSVAVGAEENMNDIVVYHRGSRSCKDAAVGTLVEMRNCGVSVTEAMLGVMTEADKEIELQQQTIESLKEKIYRLEVQLRETTHDREMTKLKQELQAAGSRKKVDKATMAQPLVFSKVVEAVVQTRDQMVGSHMDLVDTCVGTSVETNSVGISCQPECKNKVVGPELPMNWWIVKERVEMHDRCAGRSVEMCDKSVSVEVSVCETGSNTEESVNDLTLLKTNLNLKEVRSIGCGDCSVDVTVCSPKECASRGVNTEAVSQVEAAVMAVPRTADQDTSTDLEQVHQFTNTETATLIESCTNTCLSTLDKQTSTQTVETRTVAVGEGRVKDINSSTKTRSIGVGTLLSGHSGFDRPSAVKTKESGVGQININDNYLVGLKMRTIACGPPQLTVGLTASRRSVGVGDDPVGESLENPQPQAPLGMMTGLDHYIERIQKLLAEQQTLLAENYSELAEAFGEPHSQMGSLNSQLISTLSSINSVMKSASTEELRNPDFQKTSLGKITGNYLGYTCKCGGLQSGSPLSSQTSQPEQEVGTSEGKPISSLDAFPTQEGTLSPVNLTDDQIAAGLYACTNNESTLKSIMKKKDGNKDSNGAKKNLQFVGINGGYETTSSDDSSSDESSSSESDDECDVIEYPLEEEEEEEDEDTRGMAEGHHAVNIEGLKSARVEDEMQVQECEPEKVEIRERYELSEKMLSACNLLKNTINDPKALTSKDMRFCLNTLQHEWFRVSSQKSAIPAMVGDYIAAFEAISPDVLRYVINLADGNGNTALHYSVSHSNFEIVKLLLDADVCNVDHQNKAGYTPIMLAALAAVEAEKDMRIVEELFGCGDVNAKASQAGQTALMLAVSHGRIDMVKGLLACGADVNIQDDEGSTALMCASEHGHVEIVKLLLAQPGCNGHLEDNDGSTALSIALEAGHKDIAVLLYAHVNFAKAQSPGTPRLGRKTSPGPTHRGSFD | -1.352 | 3.839 |  |  |
| GAPVD1 (protein, UniProt Q14C86 1-1478, looked up) GTPase-activating protein and …: MVKLDIHTLAHHLKQERLYVNSEKQLIQRLNADVLKTAEKLYRTAWIAKQQRINLDRLIITSAEASPAECCQHAKILEDTQFVDGYKQLGFQETAYGEFLSRLRENPRLIASSLVAGEKLNQENTQSVIYTVFTSLYGNCIMQEDESYLLQVLRYLIEFELKESDNPRRLLRRGTCAFSILFKLFSEGLFSAKLFLTATLHEPIMQLLVEDEDHLETDPNKLIERFSPSQQEKLFGEKGSDRFRQKVQEMVESNEAKLVALVNKFIGYLKQNTYCFPHSLRWIVSQMYKTLSCVDRLEVGEVRAMCTDLLLACFICPAVVNPEQYGIISDAPINEVARFNLMQVGRLLQQLAMTGSEEGDPRTKSSLGKFDKSCVAAFLDVVIGGRAVETPPLSSVNLLEGLSRTVVYITYSQLITLVNFMKSVMSGDQLREDRMALDNLLANLPPAKPGKSSSLEMTPYNTPQLSPATTPANKKNRLPIATRSRSRTNMLMDLHMDHEGSSQETIQEVQPEEVLVISLGTGPQLTPGMMSENEVLNMQLSDGGQGDVPVDENKLHGKPDKTLRFSLCSDNLEGISEGPSNRSNSVSSLDLEGESVSELGAGPSGSNGVEALQLLEHEQATTQDNLDDKLRKFEIRDMMGLTDDRDISETVSETWSTDVLGSDFDPNIDEDRLQEIAGAAAENMLGSLLCLPGSGSVLLDPCTGSTISETTSEAWSVEVLPSDSEAPDLKQEERLQELESCSGLGSTSDDTDVREVSSRPSTPGLSVVSGISATSEDIPNKIEDLRSECSSDFGGKDSVTSPDMDEITHGAHQLTSPPSQSESLLAMFDPLSSHEGASAVVRPKVHYARPSHPPPDPPILEGAVGGNEARLPNFGSHVLTPAEMEAFKQRHSYPERLVRSRSSDIVSSVRRPMSDPSWNRRPGNEERELPPAAAIGATSLVAAPHSSSSSPSKDSSRGETEERKDSDDEKSDRNRPWWRKRFVSAMPKAPIPFRKKEKQEKDKDDLGPDRFSTLTDDPSPRLSAQAQVAEDILDKYRNAIKRTSPSDGAMANYESTGDNHDRDLSSKLLYHSDKEVMGDGESAHDSPRDEALQNISADDLPDSASQAAHPQDSAFSYRDAKKKLRLALCSADSVAFPVLTHSTRNGLPDHTDPEDNEIVCFLKVQIAEAINLQDKNLMAQLQETMRCVCRFDNRTCRKLLASIAEDYRKRAPYIAYLTRCRQGLQTTQAHLERLLQRVLRDKEVANRYFTTVCVRLLLESKEKKIREFIQDFQKLTAADDKTAQVEDFLQFLYGAMAQDVIWQNASEEQLQDAQLAIERSVMNRIFKLAFYPNQDGDILRDQVLHEHIQRLSKVVTANHRALQIPEVYLREAPWPSAQSEIRTISAYKTPRDKVQCILRMCSTIMNLLSLANEDSVPGADDFVPVLVFVLIKANPPCLLSTVQYISSFYASCLSGEESYWWMQFTAAVEFIKTIDDRK | -1.38 | 4.189 |  |  |
| PHB (protein, UniProt P35232 2-272, looked up) Prohibitin 1: AAKVFESIGKFGLALAVAGGVVNSALYNVDAGHRAVIFDRFRGVQDIVVGEGTHFLIPWVQKPIIFDCRSRPRNVPVITGSKDLQNVNITLRILFRPVASQLPRIFTSIGEDYDERVLPSITTEILKSVVARFDAGELITQRELVSRQVSDDLTERAATFGLILDDVSLTHLTFGKEFTEAVEAKQVAQQEAERARFVVEKAEQQKKAAIISAEGDSKAAELIANSLATAGDGLIELRKLEAAEDIAYQLSRSRNITYLPAGQSVLLQLPQ |  |  | 1.5807 | 1.469 |
